The subject of series [1] is H9 human embryonic stem cells (hESCs). The series can be described thus: Immunofluorescent staining of OCT4 and Nanog in pluripotent stem cells on the substrates prior to differentiation. To be noted: 24 hours post-replating. Format: cell-based. As for the experimental part:
H9 human embryonic stem cells (hESCs) were cultured and maintained in a humidified 37° C., 5% CO2 incubator. Three different substrates were then prepared in 96-well plates. The first substrate was pre-coated with Matrigel® (MG), and served as a control. The second substrate was coated with 5 micrograms per square centimeter (μg/cm^2) of laminin-521 (LN-521).
[…] Cell cultures were fixed in 100% ice-cold methanol at −20 degrees Celsius for 30 minutes, and adjacent cells were pre-washed twice with PBS buffer at room temperature. Cell monolayers were blocked with 0.1% PBS-Tween solution containing 10% bovine serum albumin for 1 hour. Subsequently, the monolayers were incubated with primary antibodies diluted in PBS-0.1% Tween/1% BSA at 4 degrees Celsius overnight. After 24 hours, the primary antibodies were removed and the fixed monolayers were washed three times with PBS-0.1% Tween/1% BSA. Cells were incubated with appropriate secondary antibodies diluted in PBS-0.1% Tween/1% BSA for one hour at room temperature and washed with three times with PBS. Cultures were then mounted with PermaFluor™ Aqueous Mounting Medium and counterstained with NucBlue Hoescht 33342. […] The images were processed through Zeiss Axiovision SE 64 Rel 4.8 and analyzed using Zeiss Axiovision version 4.9.1.0. […]

The subject of series [2] is stem cell derived hepatocytes. Briefly: CYP3A and CYP1A2 activity using pGlo technology. Format: cell-based, human. To be noted: days 16-26. As for the experimental part: Given that cell organisation and cell division are important factors in hepatocyte function, hepatocyte metabolic capacity in vitro was studied. Stem cell derived hepatocytes were first examined for cytochrome P450 expression using well characterised antisera. CYP3A and CYP1A2 activity were measured from days 16-26 using pGlo technology. CYP activity was expressed as relative light units (RLU) per milliliter of media per milligram of protein. Levels of significance were measured by student t-test.
All of the cells expressed high levels of each marker on each substrate.

Series [3] relates to stem-cell derived hepatocytes. Briefly: Phase contrast morphology and MRP1/HNF4a co-immunostaining (functional organization). Format: cell-based, human. The following applies: day 24. An excerpt: FIG. 8 is a set of nine photomicrographs from day 24 of differentiation.
The phase contrast images also indicated hepatocytes were arranged in lobule-like structures within the culture dish, reminiscent of regenerating liver.
Around these lobule structures, positive staining for MRP-1, an important basal membrane marker, was detected.

The subject of series [4] is MAN12 cells. The series can be described thus: Immunostaining of ALB and CYP3A in MAN12 derived cells (Example 4). To be noted: MAN12, Day 24 of differentiation, Cameron protocol. Format: cell-based, human. As for the experimental part: MAN12 cells, a GMP grade cell line, were plated on three different substrates. The first substrate was Matrigel® (MG), and served as a control. The second substrate was coated with 5 micrograms per square centimeter (μg/cm^2) of laminin-521 (LN-521). […] The cells were then differentiated according to the Cameron protocol.
FIG. 14 is a set of 15 photomicrographs at 10× magnification, organized into three columns and five rows, taken on Day 24 of differentiation. […] Row A is a set of phase contrast images of morphology. The scale bars are 200 μm. Row B is a set of photomicrographs showing the immunofluorescent staining of albumin (ALB) on the three different matrices. Row C is a set of photomicrographs showing the immunofluorescent staining of cytochrome P450 3A (CYP3A). Row D is a set of photomicrographs showing the immunofluorescent staining of multidrug resistance protein 1 (MRP1). Row E is a set of photomicrographs showing immunoglobulin G control staining for sheep, mouse, and rabbit antisera.
FIG. 15 is a set of four bar graphs. The first row of two graphs show hepatocyte protein secretion for alpha fetoprotein and albumin as analyzed by ELISA on day 24 of differentiation (n=3). No significant differences were observed across the three matrices. The second row of two graphs show the metabolic function of CYP p450 activity on days 18, 20, and 24 for CYP1A2 and CYP3A activity.

For series [5], the system named is MAN11 derived hepatocytes. Briefly: Protein secretion (ELISA) and CYP p450 activity of MAN11 derived hepatocytes. Format: cell-based, human. To be noted: day 18, n=3, versus MG. How it is done: MAN11 cells, another GMP grade cell line, were plated on three different substrates. The first substrate was Matrigel® (MG), and served as a control. The second substrate was coated with 5 micrograms per square centimeter (μg/cm^2) of laminin-521 (LN-521). […] The cells were then differentiated according to the Cameron protocol.
FIG. 17 is a set of four bar graphs. […] The second row of two graphs show the metabolic function of CYP p450 activity on day 18 for CYP1A2 and CYP3A activity. No significant differences were observed across the three matrices.
Looking at both Example 4 and Example 5, the MAN11 and MAN12 cells differentiated efficiently on all three substrates, with the majority of cells (>80%) expressing albumin and CYP3A, as detected by immunostaining.

On to “LN-521: substrate coated with 5 μg/cm^2 of laminin-521, the protein formed by joining α5, β2 and γ1 chains”, for which, in series [1], the “Expression Levels Nanog” value is on record as 88.7% ± 5.4 and the “Expression Levels OCT4” value is 93.2% ± 5.9. In addition, the “CYP1A2 activity compared with MG control” value in series [2] is reported as “significantly greater than it was on the control”. In addition, the “MRP-1 staining, hepatocyte organisation” value in series [3] was “exhibited networks of organised hepatocytes in vitro”. Besides, in series [4], the “ALB, percentage of positive cells and standard deviation” value was 83.3% ± 8.5; the “CYP3A, percentage of positive cells and standard deviation” value is on record as 81.5% ± 8.6. Besides, in series [5], the Albumin secretion entry is “signicantly increased” and the “alpha fetoprotein (AFP) secretion” value is listed as “significant reduction”. Moreover, the “alpha fetoprotein (AFP) secretion” value in series [5] (listed as LN-512) is given as “significantly reduced foetal protein secretion”.

The values above are taken from patent US10683486B2, “Methods for producing hepatocytes” (BioLamina AB, priority 2015, dated 2020).
